Source: publication PMC9482650, “Quantitative fragmentomics allow affinity mapping of interactomes” (Nature Communications, 2022)

Legend:
Assay in all cases: holdup assay
Set-up in all cases: key: below the threshold = too weak to quantify, mostly under pKd 3.1 to 4
Inadl_1, Q8NI35 = molecular target: Inadl_1, Q8NI35
GORASP2, Q9H8Y8 = molecular target: GORASP2, Q9H8Y8
MPDZ_10, O75970 = molecular target: T1, MPDZ_10, O75970
T1 sequence (O75970 1624-1722, limits assumed, looked up): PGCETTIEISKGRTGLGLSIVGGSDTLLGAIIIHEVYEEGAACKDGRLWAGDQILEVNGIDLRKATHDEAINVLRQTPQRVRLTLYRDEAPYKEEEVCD

NHERF4_4, Q86UT5 = molecular target: NHERF4_4, Q86UT5
NHERF4_4, Q86UT5, sequence (Q86UT5 464-550): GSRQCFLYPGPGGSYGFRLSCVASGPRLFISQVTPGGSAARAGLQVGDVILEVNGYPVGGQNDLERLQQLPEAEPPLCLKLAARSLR

DLG2_2, Q15700 = molecular target: DLG2_2, Q15700
GRIP1_3, Q9Y3R0 = molecular target: T2, GRIP1_3, Q9Y3R0
T2 sequence (Q9Y3R0 247-346, limits assumed, looked up): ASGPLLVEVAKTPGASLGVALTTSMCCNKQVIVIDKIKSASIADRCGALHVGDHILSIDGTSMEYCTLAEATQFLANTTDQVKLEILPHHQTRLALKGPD

GRIP1_7, Q9Y3R0 = molecular target: T3, GRIP1_7, Q9Y3R0
T3 sequence (Q9Y3R0 999-1096, limits assumed, looked up): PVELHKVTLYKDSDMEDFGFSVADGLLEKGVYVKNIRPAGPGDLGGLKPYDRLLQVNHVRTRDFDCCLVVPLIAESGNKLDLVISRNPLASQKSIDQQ

GIPC2, Q8TF65 = molecular target: GIPC2, Q8TF65
GIPC2, Q8TF65, sequence (Q8TF65 112-203): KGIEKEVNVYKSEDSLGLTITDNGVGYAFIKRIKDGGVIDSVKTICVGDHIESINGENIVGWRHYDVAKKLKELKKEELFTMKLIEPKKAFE

RADIL, Q96JH8 = molecular target: T4, RADIL, Q96JH8
T4 sequence (Q96JH8 971-1071, limits assumed, looked up): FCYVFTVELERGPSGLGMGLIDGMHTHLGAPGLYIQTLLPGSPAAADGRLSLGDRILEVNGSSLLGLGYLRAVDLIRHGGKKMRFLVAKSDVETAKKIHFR

DLG1_1, Q12959 = molecular target: DLG1_1, Q12959
LDB3, O75112 = molecular target: LDB3, O75112
LDB3, O75112, sequence (O75112 1-94): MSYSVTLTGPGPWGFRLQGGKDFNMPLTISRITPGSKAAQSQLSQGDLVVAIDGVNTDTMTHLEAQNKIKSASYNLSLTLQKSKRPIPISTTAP

MAGI2_2, Q86UL8 = molecular target: MAGI2_2, Q86UL8
MAGI2_2, Q86UL8, sequence (Q86UL8 410-522): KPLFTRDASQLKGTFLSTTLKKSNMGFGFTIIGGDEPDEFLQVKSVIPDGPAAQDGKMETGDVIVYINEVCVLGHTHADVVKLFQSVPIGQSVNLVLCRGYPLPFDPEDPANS

TIAM2, Q8IVF5 = molecular target: T5, TIAM2, Q8IVF5
T5 sequence (Q8IVF5 885-986, limits assumed, looked up): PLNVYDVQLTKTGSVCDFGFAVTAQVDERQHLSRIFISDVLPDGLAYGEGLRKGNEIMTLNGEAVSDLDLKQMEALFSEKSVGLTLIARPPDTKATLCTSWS

TJP1_2, Q07157 = molecular target: TJP1_2, Q07157
TJP1_2, Q07157, sequence (Q07157 181-274): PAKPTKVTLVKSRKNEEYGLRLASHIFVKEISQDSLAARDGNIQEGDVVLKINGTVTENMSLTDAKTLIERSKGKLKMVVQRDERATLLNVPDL

GRIP2_7, Q9C0E4 = molecular target: GRIP2_7, Q9C0E4
GRIP2_7, Q9C0E4, sequence (Q9C0E4 934-1023): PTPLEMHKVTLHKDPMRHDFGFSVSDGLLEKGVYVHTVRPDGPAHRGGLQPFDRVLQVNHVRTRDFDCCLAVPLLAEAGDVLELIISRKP

APBA1_1, Q02410 = molecular target: T6, APBA1_1, Q02410
T6 sequence (Q02410 651-752, limits assumed, looked up): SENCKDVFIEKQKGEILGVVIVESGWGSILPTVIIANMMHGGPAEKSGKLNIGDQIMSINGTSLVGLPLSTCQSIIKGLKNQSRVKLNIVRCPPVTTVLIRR

MAGI2_3, Q86UL8 = molecular target: MAGI2_3, Q86UL8
MAGI2_3, Q86UL8, sequence (Q86UL8 600-682): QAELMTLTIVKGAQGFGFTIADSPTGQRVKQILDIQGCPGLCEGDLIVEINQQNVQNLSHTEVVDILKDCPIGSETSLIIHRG

GRIP1_2, Q9Y3R0 = molecular target: T7, GRIP1_2, Q9Y3R0
T7 sequence (Q9Y3R0 145-248, limits assumed, looked up): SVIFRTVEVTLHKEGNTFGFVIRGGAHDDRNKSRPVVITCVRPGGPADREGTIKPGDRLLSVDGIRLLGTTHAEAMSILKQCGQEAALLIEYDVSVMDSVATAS

LIN7A, O14910 = molecular target: T8, LIN7A, O14910
T8 sequence (O14910 103-200, limits assumed, looked up): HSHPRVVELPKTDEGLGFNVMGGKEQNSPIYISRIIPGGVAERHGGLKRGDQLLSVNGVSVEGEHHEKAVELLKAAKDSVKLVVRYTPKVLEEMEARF

PCLO, Q9Y6V0 = molecular target: T9, PCLO, Q9Y6V0
T9 sequence (Q9Y6V0 4491-4600, limits assumed, looked up): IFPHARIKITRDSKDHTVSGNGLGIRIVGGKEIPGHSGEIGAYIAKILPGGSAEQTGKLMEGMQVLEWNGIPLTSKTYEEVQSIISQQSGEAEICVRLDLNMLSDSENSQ

DLG2_3, Q15700 = molecular target: DLG2_3, Q15700
TJP1_3, Q07157 = molecular target: TJP1_3, Q07157
TJP1_3, Q07157, sequence (Q07157 416-512): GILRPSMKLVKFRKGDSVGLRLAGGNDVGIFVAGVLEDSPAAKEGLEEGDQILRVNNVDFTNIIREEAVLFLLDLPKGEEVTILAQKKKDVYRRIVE

AHNAK1, Q09666 = molecular target: AHNAK1, Q09666
AHNAK1, Q09666, sequence (Q09666 4-100): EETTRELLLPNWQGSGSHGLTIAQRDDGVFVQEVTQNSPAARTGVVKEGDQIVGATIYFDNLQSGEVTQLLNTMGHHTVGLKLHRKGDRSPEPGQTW

GOPC, Q9HD26 = molecular target: GOPC, Q9HD26
GRID2IP_1, A4D2P6 = molecular target: GRID2IP_1, A4D2P6
GRID2IP_1, A4D2P6, sequence (A4D2P6 1-87): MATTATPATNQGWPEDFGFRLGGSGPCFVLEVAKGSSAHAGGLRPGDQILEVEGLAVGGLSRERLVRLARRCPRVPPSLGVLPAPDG

SCRIB_3, Q14160 = molecular target: SCRIB_3, Q14160
SCRIB_3, Q14160, sequence (Q14160 999-1103): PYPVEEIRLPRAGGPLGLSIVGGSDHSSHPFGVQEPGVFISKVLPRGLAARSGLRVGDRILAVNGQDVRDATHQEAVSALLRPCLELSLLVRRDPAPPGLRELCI

NHERF3_1, Q5T2W1 = molecular target: T10, NHERF3_1, Q5T2W1
T10 sequence (Q5T2W1 4-100, limits assumed, looked up): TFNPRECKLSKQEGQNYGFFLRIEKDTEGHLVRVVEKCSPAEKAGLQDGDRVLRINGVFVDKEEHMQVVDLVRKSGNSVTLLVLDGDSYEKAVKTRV

DLG1_3, Q12959 = molecular target: DLG1_3, Q12959
[1] = plain residues with an end cap or a label only (N-terminal biotin on a linker: ado-ado)
[2] = plain residues with an end cap or a label only (N-terminal biotin on a linker: ahx)

Inadl_1, Q8NI35, sequence (Q8NI35 113-229): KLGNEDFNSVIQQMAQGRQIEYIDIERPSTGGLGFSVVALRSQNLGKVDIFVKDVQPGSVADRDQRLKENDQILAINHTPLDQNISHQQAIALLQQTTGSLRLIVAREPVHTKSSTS

With GTGYDRKDYV [CLDN3, O15551] the pKd (Inadl_1, Q8NI35; [1]) was “below the threshold”, the pKd (GORASP2, Q9H8Y8; [1]) was 3.57 and the pKd (MPDZ_10, O75970; [1]) was 3.51. The pKd (NHERF4_4, Q86UT5; [1]) was “below the threshold”, the pKd (DLG2_2, Q15700; [1]) was “below the threshold” and the pKd (GRIP1_3, Q9Y3R0; [1]) was “below the threshold”. For the same binder, the pKd (GRIP1_7, Q9Y3R0; [1]) was “below the threshold”, the pKd (GIPC2, Q8TF65; [1]) was “below the threshold” and the pKd (RADIL, Q96JH8; [1]) was 4.12. The pKd (DLG1_1, Q12959; [1]) was “below the threshold”, the pKd (LDB3, O75112; [1]) was “below the threshold” and the pKd (MAGI2_2, Q86UL8; [1]) was “below the threshold”. For the same binder, the pKd (TIAM2, Q8IVF5; [1]) was “below the threshold”, the pKd (TJP1_2, Q07157; [1]) was 3.6 and the pKd (GRIP2_7, Q9C0E4; [1]) was “below the threshold”. For the same binder, the pKd (APBA1_1, Q02410; [1]) was “below the threshold”, the pKd (MAGI2_3, Q86UL8; [1]) was 3.48 and the pKd (GRIP1_2, Q9Y3R0; [1]) was “below the threshold”. The pKd (LIN7A, O14910; [1]) was “below the threshold”, the pKd (PCLO, Q9Y6V0; [1]) was “below the threshold” and the pKd (DLG2_3, Q15700; [1]) was “below the threshold”. The pKd (TJP1_3, Q07157; [1]) was 3.54, the pKd (AHNAK1, Q09666; [1]) was “below the threshold” and the pKd (GOPC, Q9HD26; [1]) was “below the threshold”. For the same binder, the pKd (GRID2IP_1, A4D2P6; [1]) was “below the threshold”, the pKd (SCRIB_3, Q14160; [1]) was “below the threshold” and the pKd (NHERF3_1, Q5T2W1; [1]) was 4.55. For the same binder, the pKd (DLG1_3, Q12959; [1]) was 3.67.

In the case of RSSGGDDFWF [KCNV1, Q6PIU1], the pKd (Inadl_1, Q8NI35; [1]) is reported as “below the threshold”, the pKd (GORASP2, Q9H8Y8; [1]) is reported as 4.21 and the pKd (MPDZ_10, O75970; [1]) is reported as “below the threshold”. For the same binder, the pKd (NHERF4_4, Q86UT5; [1]) was 4.43, the pKd (DLG2_2, Q15700; [1]) was “below the threshold” and the pKd (GRIP1_3, Q9Y3R0; [1]) was “below the threshold”. For the same binder, the pKd (GRIP1_7, Q9Y3R0; [1]) was “below the threshold”, the pKd (GIPC2, Q8TF65; [1]) was “below the threshold” and the pKd (RADIL, Q96JH8; [1]) was “below the threshold”. For the same binder, the pKd (DLG1_1, Q12959; [1]) was “below the threshold”, the pKd (LDB3, O75112; [1]) was “below the threshold” and the pKd (MAGI2_2, Q86UL8; [1]) was “below the threshold”. For the same binder, the pKd (TIAM2, Q8IVF5; [1]) was 4.47, the pKd (TJP1_2, Q07157; [1]) was 5.12 and the pKd (GRIP2_7, Q9C0E4; [1]) was 4.59. For the same binder, the pKd (APBA1_1, Q02410; [1]) was “below the threshold”, the pKd (MAGI2_3, Q86UL8; [1]) was “below the threshold” and the pKd (GRIP1_2, Q9Y3R0; [1]) was “below the threshold”. The pKd (LIN7A, O14910; [1]) was “below the threshold”, the pKd (PCLO, Q9Y6V0; [1]) was “below the threshold” and the pKd (DLG2_3, Q15700; [1]) was 3.6. The pKd (TJP1_3, Q07157; [1]) was “below the threshold”, the pKd (AHNAK1, Q09666; [1]) was “below the threshold” and the pKd (GOPC, Q9HD26; [1]) was “below the threshold”. The pKd (GRID2IP_1, A4D2P6; [1]) was “below the threshold”, the pKd (SCRIB_3, Q14160; [1]) was 4.29 and the pKd (NHERF3_1, Q5T2W1; [1]) was 4.08. The pKd (DLG1_3, Q12959; [1]) was 3.57.

RDPPAEWTRV [PTPN18, Q99952] was tested, and the pKd (Inadl_1, Q8NI35; [1]) was “below the threshold”, the pKd (GORASP2, Q9H8Y8; [1]) was 4.11 and the pKd (MPDZ_10, O75970; [1]) was “below the threshold”. For the same binder, the pKd (NHERF4_4, Q86UT5; [1]) was “below the threshold”, the pKd (DLG2_2, Q15700; [1]) was 4.01 and the pKd (GRIP1_3, Q9Y3R0; [1]) was “below the threshold”. For the same binder, the pKd (GRIP1_7, Q9Y3R0; [1]) was “below the threshold”, the pKd (GIPC2, Q8TF65; [1]) was “below the threshold” and the pKd (RADIL, Q96JH8; [1]) was 4. The pKd (DLG1_1, Q12959; [1]) was 4.09, the pKd (LDB3, O75112; [1]) was “below the threshold” and the pKd (MAGI2_2, Q86UL8; [1]) was 4.04. The pKd (TIAM2, Q8IVF5; [1]) was “below the threshold”, the pKd (TJP1_2, Q07157; [1]) was “below the threshold” and the pKd (GRIP2_7, Q9C0E4; [1]) was “below the threshold”. The pKd (APBA1_1, Q02410; [1]) was “below the threshold”, the pKd (MAGI2_3, Q86UL8; [1]) was 4.46 and the pKd (GRIP1_2, Q9Y3R0; [1]) was “below the threshold”. For the same binder, the pKd (LIN7A, O14910; [1]) was 3.58, the pKd (PCLO, Q9Y6V0; [1]) was “below the threshold” and the pKd (DLG2_3, Q15700; [1]) was 3.54. The pKd (TJP1_3, Q07157; [1]) was “below the threshold”, the pKd (AHNAK1, Q09666; [1]) was “below the threshold” and the pKd (GOPC, Q9HD26; [1]) was 4.3. The pKd (GRID2IP_1, A4D2P6; [1]) was “below the threshold”, the pKd (SCRIB_3, Q14160; [1]) was “below the threshold” and the pKd (NHERF3_1, Q5T2W1; [1]) was 4.33. The pKd (DLG1_3, Q12959; [1]) was “below the threshold”.

TESNLQTSSC [CGN, Q9P2M7] was tested, and the pKd (Inadl_1, Q8NI35; [2]) was “below the threshold”, the pKd (GORASP2, Q9H8Y8; [2]) was “below the threshold” and the pKd (MPDZ_10, O75970; [2]) was 3.9. The pKd (NHERF4_4, Q86UT5; [2]) was “below the threshold”, the pKd (DLG2_2, Q15700; [2]) was “below the threshold” and the pKd (GRIP1_3, Q9Y3R0; [2]) was “below the threshold”. The pKd (GRIP1_7, Q9Y3R0; [2]) was “below the threshold”, the pKd (GIPC2, Q8TF65; [2]) was 3.78 and the pKd (RADIL, Q96JH8; [2]) was “below the threshold”. The pKd (DLG1_1, Q12959; [2]) was “below the threshold”, the pKd (LDB3, O75112; [2]) was “below the threshold” and the pKd (MAGI2_2, Q86UL8; [2]) was “below the threshold”. For the same binder, the pKd (TIAM2, Q8IVF5; [2]) was “below the threshold”, the pKd (TJP1_2, Q07157; [2]) was “below the threshold” and the pKd (GRIP2_7, Q9C0E4; [2]) was “below the threshold”. For the same binder, the pKd (APBA1_1, Q02410; [2]) was “below the threshold”, the pKd (MAGI2_3, Q86UL8; [2]) was “below the threshold” and the pKd (GRIP1_2, Q9Y3R0; [2]) was “below the threshold”. For the same binder, the pKd (LIN7A, O14910; [2]) was “below the threshold”, the pKd (PCLO, Q9Y6V0; [2]) was “below the threshold” and the pKd (DLG2_3, Q15700; [2]) was “below the threshold”. The pKd (TJP1_3, Q07157; [2]) was “below the threshold”, the pKd (AHNAK1, Q09666; [2]) was “below the threshold” and the pKd (GOPC, Q9HD26; [2]) was “below the threshold”. The pKd (GRID2IP_1, A4D2P6; [2]) was “below the threshold”, the pKd (SCRIB_3, Q14160; [2]) was “below the threshold” and the pKd (NHERF3_1, Q5T2W1; [2]) was “below the threshold”. The pKd (DLG1_3, Q12959; [2]) was “below the threshold”.
